Experimental findings from patent US20250002610A1 (Genmab, published 2025) are described below.

Usually EC50 stands for the concentration needed to bring the measured effect to its halfway point. Higher therefore signals lower potency in that assay.

Test [1] addresses T1, human DR4 (Death Receptor 4), cell surface expressed on human tumor cell lines (human, UniProt O00220 24-468).
T1 construct: also called TNFRSF10A; TRAIL-R1
T1 sequence: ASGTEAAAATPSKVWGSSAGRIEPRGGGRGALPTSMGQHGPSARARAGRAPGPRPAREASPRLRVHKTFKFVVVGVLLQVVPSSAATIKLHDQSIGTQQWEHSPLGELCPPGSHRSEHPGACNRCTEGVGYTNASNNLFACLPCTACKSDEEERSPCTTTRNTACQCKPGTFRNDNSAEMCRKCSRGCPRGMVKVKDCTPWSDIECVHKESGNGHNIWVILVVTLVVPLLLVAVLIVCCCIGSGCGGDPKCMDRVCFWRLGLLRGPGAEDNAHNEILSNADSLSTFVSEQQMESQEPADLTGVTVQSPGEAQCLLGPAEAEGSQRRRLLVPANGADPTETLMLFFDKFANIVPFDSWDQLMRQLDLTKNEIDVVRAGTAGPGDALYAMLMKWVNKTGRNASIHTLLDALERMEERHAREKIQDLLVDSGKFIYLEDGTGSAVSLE
The test is described as follows: flow cytometry, MDA-MB-231 cells, N = 2.

The target of test [2] is T2, mouse FAPα on Expi293F cells (mouse (Mus musculus), UniProt P97321 1-761).
T2 sequence: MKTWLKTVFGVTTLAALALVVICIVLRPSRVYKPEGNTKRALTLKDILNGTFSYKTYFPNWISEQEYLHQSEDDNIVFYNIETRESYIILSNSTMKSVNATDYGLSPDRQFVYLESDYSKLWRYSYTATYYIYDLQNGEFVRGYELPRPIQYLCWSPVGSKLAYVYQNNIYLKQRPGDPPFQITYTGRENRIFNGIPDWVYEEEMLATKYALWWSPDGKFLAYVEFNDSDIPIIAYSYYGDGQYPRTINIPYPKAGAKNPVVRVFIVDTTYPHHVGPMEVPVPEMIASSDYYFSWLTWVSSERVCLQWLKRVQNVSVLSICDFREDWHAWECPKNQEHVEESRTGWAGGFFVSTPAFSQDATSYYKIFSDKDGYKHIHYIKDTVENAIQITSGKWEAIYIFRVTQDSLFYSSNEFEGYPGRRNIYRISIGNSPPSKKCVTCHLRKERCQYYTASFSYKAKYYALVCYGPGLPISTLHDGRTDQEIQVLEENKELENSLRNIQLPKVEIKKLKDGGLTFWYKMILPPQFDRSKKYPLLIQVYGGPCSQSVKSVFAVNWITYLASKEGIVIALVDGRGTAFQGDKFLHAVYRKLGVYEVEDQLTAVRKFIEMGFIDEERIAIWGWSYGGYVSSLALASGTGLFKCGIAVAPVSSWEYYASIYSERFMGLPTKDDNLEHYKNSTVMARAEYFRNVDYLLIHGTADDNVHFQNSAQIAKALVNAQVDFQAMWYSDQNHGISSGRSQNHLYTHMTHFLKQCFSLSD
The test is described as follows: flow cytometry on Expi293F cells transiently expressing mouse FAPα, gMFI PE. How it is done:
Binding of BisG1-FAPα-FERL/DR4-FERR, BisG1-FAPα-FEAL/b12-FEAR and IgG1-FAPα-FERL to FAPα of species commonly used for nonclinical toxicology studies was assessed by flow cytometry using Expi293F cells transiently expressing FAPα from different animal species. IgG1-b12 was included as negative control.
Expi293F cells expressing recombinant FAPα from various species (human, cynomolgus monkey, dog, pig, rat or mouse) were seeded (20,000 cells/well) in 96-Well round bottom plates (Greiner Bio-one, Cat #650101). Antibody dilutions were prepared using FACS buffer, consisting of PBS (Capricorn Scientific, Cat #PBS-10XA, diluted to 1×PBS in distilled water)+1% BSA (Roche, Cat #10735086001)+0.02% Sodium Azide (Bio-World, Cat #41920044-3). Plates were centrifuged, supernatant was removed, and cells were resuspended in 100 μL of antibody dilutions (concentration range 30-0.00017 μg/mL with three-fold serial dilutions using FACS buffer) of BisG1-FAPα-FERL/DR4-FERR, BisG1-FAPα-FEAL/b12-FEAR, IgG1-FAPα-FERL and IgG1-b12 and incubated for 30 min at 4° C. […] After 30 min incubation at 4° C., cells were washed with FACS buffer and resuspended in FACS buffer supplemented with TO-PRO-3 Iodide viability marker (Invitrogen, Cat #T3605, diluted 1:4,000). Antibody binding to viable cells (gMFI of PE on TO-PRO-3 negative cells) was analyzed by flow cytometry on a FACS Celesta and FACS_Diva software (first two experiments) or iQue® 3 and FlowJo software (last experiment). gMFI was determined and visualized using GraphPad Prism. Binding curves were analyzed using nonlinear regression analysis. The concentration (pg/mL) at which 50% of the maximal effect was observed (EC₅₀) was derived from the fitted curves.

Test [3] addresses T1, human DR4 (Death Receptor 4), cell …. The test is described as follows: flow cytometry, HCT-15 cells, n = 2. A general note: In flow cytometry, cells or beads pass a laser one at a time.

B1: BisG1-FAPα-FERL/DR4-FERR (bispecific antibody, human IgG1, kappa, lambda)
heavy 1: EVQLLESGGGLVQPGGSPRLSCEASGFTFSSYALSWVRQAPGKGLEWVSAISGSGGGRYYADSVKGRFTISRDNSKNTLFLQMNSLRAEDTAVYYCAKEGYSSSGTYWDHWGQGTLVTVSSASTKGPSVFPLAPSSKSTSGGTAALGCLVKDYFPEPVTVSWNSGALTSGVHTFPAVLQSSGLYSLSSVVTVPSSSLGTQTYICNVNHKPSNTKVDKRVEPKSCDKTHTCPPCPAPEFERGPSVFLFPPKPKDTLMISRTPEVTCVVVDVSHEDPEVKFNWYVDGVEVHNAKTKPREEQYNSTYRVVSVLTVLHQDWLNGKEYKCKVSNKALPAPIEKTISKAKGQPREPQVYTLPPSREEMTKNQVSLTCLVKGFYPSDIAVEWESNGQPENNYKTTPPVLDSDGSFLLYSKLTVDKSRWQQGNVFSCSVMHEALHNHYTQKSLSLSPG
light 1: AIQMTQSPSSVSASVGDRVTITCRASQGVSSWLAWYQQKPGRAPKLLIYVASTLQSGVPSRFSGSGSGTDFTLTINSLQPEDFATYYCQQANSFPPTFGQGTRLEMKRTVAAPSVFIFPPSDEQLKSGTASVVCLLNNFYPREAKVQWKVDNALQSGNSQESVTEQDSKDSTYSLSSTLTLSKADYEKHKVYACEVTHQGLSSPVTKSFNRGEC
heavy 2: QVQLQESGPGLVKPSGTLSLTCAVSGGSISSYSWWSWIRQPPGKGLEWIGELYHSGSTNYNPSLKSRVTISVDKSKNQFSLKLRSVTAADTAVYYCVRGVATIDYWGQGTLVTVSSASTKGPSVFPLAPSSKSTSGGTAALGCLVKDYFPEPVTVSWNSGALTSGVHTFPAVLQSSGLYSLSSVVTVPSSSLGTQTYICNVNHKPSNTKVDKRVEPKSCDKTHTCPPCPAPEFERGPSVFLFPPKPKDTLMISRTPEVTCVVVDVSHEDPEVKFNWYVDGVEVHNAKTKPREEQYNSTYRVVSVLTVLHQDWLNGKEYKCKVSNKALPAPIEKTISKAKGQPREPQVYTLPPSREEMTKNQVSLTCLVKGFYPSDIAVEWESNGQPENNYKTTPPVLDSDGSFFLYSRLTVDKSRWQQGNVFSCSVMHEALHNHYTQKSLSLSPG
light 2: QSALTQPPSASGSPGQSVTISCTGTSSDVGGYNFVSWYQQDPGKAPKLLIYEVTKRPSGVPDRFSGSKSGNTASLTVSGLQAEDEADYYCSSYAGSNNVMFGGGTKLTVLGQPKAAPSVTLFPPSSEELQANKATLVCLISDFYPGAVTVAWKADSSPVKAGVETTTPSKQSNNKYAASSYLSLTPEQWKSHRSYSCQVTHEGSTVEKTVAPTECS
notes: Human IgG1 bispecific made by controlled Fab-arm exchange of IgG1-FAPα-FERL and IgG1-DR4-FERR; monovalent for FAPα and for DR4; also called GEN1057
B1: the results for the EC50 in test [1] and in test [3] were 0.72 µg/mL and 0.69 µg/mL, respectively. Further, the binding result in test [2] is given as “binds”.
